Measurements taken from patent US20090318342A1, “Compounds” (IMPERIAL INNOVATIONS LIMITED, priority 2005, published 2009).
Like-named read-outs stand apart in the source and are kept apart here.

T1: full-length collagenase 1 (MMP-1) (Homo sapiens, UniProt P03956)
T1 construct: full-length collagenase 1 (MMP-1)
T1 sequence (P03956 100-469): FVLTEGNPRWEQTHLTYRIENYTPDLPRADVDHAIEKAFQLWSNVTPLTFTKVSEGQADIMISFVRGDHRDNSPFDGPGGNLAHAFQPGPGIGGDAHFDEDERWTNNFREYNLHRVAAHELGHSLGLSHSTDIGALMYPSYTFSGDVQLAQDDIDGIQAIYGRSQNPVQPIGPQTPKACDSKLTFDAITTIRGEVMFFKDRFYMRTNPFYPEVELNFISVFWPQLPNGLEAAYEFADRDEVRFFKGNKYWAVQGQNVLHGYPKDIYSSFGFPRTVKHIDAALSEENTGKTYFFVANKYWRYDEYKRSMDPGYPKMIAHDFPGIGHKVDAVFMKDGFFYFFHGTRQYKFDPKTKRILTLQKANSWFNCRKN


Tests used:
Assay type in all cases: biochemical
[1] = target: soluble form of TACE (TACE R651) (Homo sapiens, UniProt P78536); assay: Enzyme inhibition kinetic study, TACE
Experimental: FIG. 2. Inhibition of MMP and TACE by N-TIMP-3 and its mutants. A. Inhibition of MMP-14(CD) by wild-type and mutated N-TIMP-3. Open circles, wild-type N-TIMP-3; closed circles, T2G; and open squares, -1A. B. Comparison of the inhibition of TACE by wild-type N-TIMP-3, N-TIMP-1 and TAPI-2. The inhibitors were incubated with 0.5 nM TACE for 3 hr at room temperature, and the residual enzyme activity was measured with 10 μM Substrate III (R&D Systems). […] Open circles, N-TIMP-3; closed circles, TAPI-2; and open squares, N-TIMP-1. C. Inhibition of TACE (0.5 nM) by wild-type and mutated N-TIMP-3. Open circles, wild-type inhibitor; closed circles, T2G; and open squares, -1A.
(§1) Enzyme inhibition kinetic studies—Inhibition kinetic studies for MMPs and TACE were carried out as described previously (19, 27) with modifications. Purified N-TIMP-3 and mutants were dialyzed against 20 mM Tris-HCl (pH 7.0), 50 mM NaCl containing 20% glycerol, centrifuged at 14,000 rpm for 10 min to remove any precipitate, and protein concentration was re-measured before conducting inhibition assays. Since NaCl inhibits the activity of the TACE ectodomain in vitro (28), we adjusted the final concentration of NaCl to 1 mM in all assays with TACE. Equal volumes (10% of total assay volume) of diluted solutions of N-TIMP-3 and mutants were added to TACE assays, resulting in a final pH of 8.8.
(§2) where v is the experimentally determined reaction velocity, v0 is the uninhibited activity, E is enzyme concentration, I is inhibitor concentration, K is the apparent inhibition constant (Ki^(app)) and h is the Hill coefficient.
The inhibitory activities of the mutants were also compared with that of wild-type N-TIMP-3 against a soluble form of TACE in which the transmembrane and C-terminal cytoplasmic domains are deleted (TACE R651; (28)). […] The inhibition curve of TACE by wild-type N-TIMP-3 is sigmoid, in striking contrast with the inhibition by TAPI-2 and with the inhibition of MMPs by N-TIMP-3 and N-TIMP-1 (FIGS. 2A, 2B; (31)). Sigmoid inhibition curves were also obtained for TACE with the T2G and -1A mutants of N-TIMP-3 (FIG. 2C).

[2] = target: T1, full-length collagenase 1 (MMP-1); assay: Enzyme inhibition kinetic study, MMP-1
Experimental: as §1
(§3) (Eq. 1) Tight binding inhibition:
as §2
(§4) Inhibitory properties of mutants with purified metalloproteinases—The inhibitory activities of wild-type N-TIMP-3 and the two mutants were determined with MMPs representing four different sub-groups: full-length collagenase 1 (MMP-1), gelatinase A (MMP-2), and the catalytic domains of stromelysin 1 (MMP-3(ΔC)) and membrane-type 1 MMP (MMP-14). As previously reported for the corresponding mutants of N-TIMP-1 and TIMP-2 (17, 18), both mutations in N-TIMP-3 reduced the inhibitory activity towards the four MMPs by 2 to 3 orders of magnitude (Table I). FIG. 2A highlights the difference in inhibition of MMP-14(CD) by wild-type and mutated N-TIMP-3.
(§5) Ki(app) determinations for MMP-1, MMP-2 and MMP-3 were performed as set out in Example 1.

[3] = target: T2, catalytic domain of stromelysin 1 (MMP-3(ΔC)) (Homo sapiens, UniProt P08254); assay: Enzyme inhibition kinetic study, MMP-3
T2 construct: the catalytic domains of stromelysin 1 (MMP-3(ΔC)) and membrane-type 1 MMP (MMP-14)
Experimental: as §1, §3, §2, §4, §5

[4] = Table II, 0.5 nM TACE, pH 9.0, 1 mM NaCl, fit with equation 3
[5] = Table II, 0.5 nM TACE, pH 9.0, 1 mM NaCl, fit with equation 3, read-out: Ki(app) TACE
[6] = Table 3, read-out: Ki(app) MMP-1
[7] = higher pH and low ionic strength (TACE conditions), read-out: Ki MMP-1 under the conditions used for TACE activity measurements
[8] = Table 3, read-out: Ki(app) MMP-3

soluble form of TACE (TACE R651), sequence (P78536 215-651): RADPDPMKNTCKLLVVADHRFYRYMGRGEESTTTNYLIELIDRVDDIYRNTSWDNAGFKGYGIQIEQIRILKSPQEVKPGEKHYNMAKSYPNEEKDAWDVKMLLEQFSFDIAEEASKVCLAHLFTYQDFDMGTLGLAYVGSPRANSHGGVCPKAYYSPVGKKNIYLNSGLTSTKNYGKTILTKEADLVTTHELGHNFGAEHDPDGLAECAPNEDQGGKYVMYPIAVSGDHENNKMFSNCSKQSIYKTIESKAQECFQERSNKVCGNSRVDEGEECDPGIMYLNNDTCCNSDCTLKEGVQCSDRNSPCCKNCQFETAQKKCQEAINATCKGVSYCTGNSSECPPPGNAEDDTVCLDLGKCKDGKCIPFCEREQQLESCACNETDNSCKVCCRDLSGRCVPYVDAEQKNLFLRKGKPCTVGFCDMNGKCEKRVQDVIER
T2 sequence (P08254 100-272 limits assumed, stated change not applied): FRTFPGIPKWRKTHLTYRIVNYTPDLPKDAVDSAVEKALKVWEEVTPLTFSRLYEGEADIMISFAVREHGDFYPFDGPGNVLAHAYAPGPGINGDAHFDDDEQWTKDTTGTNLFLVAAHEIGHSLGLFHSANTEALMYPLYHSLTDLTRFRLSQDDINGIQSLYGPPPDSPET

| h (Hill coefficient) for TACE inhibition [1, 4] | Ki [1, 5] [nM] | Ki [2, 6] [nM] | Ki ([2]; Table I, enzyme 5 nM, pH 7.5, read-out: Ki(app) MMP-1) [nM] | Ki [2, 7] [nM] | Ki [3, 8] [nM] | Ki ([3]; Table I, enzyme 1 nM, pH 7.5, read-out: Ki(app) MMP-3(ΔC)) [nM] | Inhibition of TACE activity ([1]; 100 nM) | Inhibition of MMP-1 ([2]; 100 nM) | Inhibition of MMP-3 ([3]; 100 nM) | Inhibition of TACE activity (in words) ([1]; FIG. 2B, 0.5 nM TACE, pH 9.0, 1 mM NaCl) | Ki ([1]; pH 7.5, sigmoid inhibition curves, read-out: Ki against TACE at pH 7.5) [nM] | Molecule |
| --- | --- | --- | --- | --- | --- | --- | --- | --- | --- | --- | --- | --- |
| 1.9 ± 0.22 | 33.9 ± 2.8 | > 500 | ~1300 | 412 | > 1000 | ~3300 |  |  |  |  |  | -1A: N-TIMP-3 mutant with the addition of an N-terminal alanine extension (-1A) (protein) ACTCSPSHPQDAFCNSDIVIRAKVVGKKLVKEGPFGTLVYTIKQMKMYRGFTKMPHVQYIHTEASESLCGLKLEVNKYQYLLTGRVYDGKMYTGLCNFVERWDQLTLSQRKGLNYRYHLGCN |
|  |  |  |  |  |  |  | 80-90% | no inhibition | no inhibition |  |  | (-2A)N-TIMP-3: N-TIMP-3 mutant with two alanine residues on the N-terminal side of Cysteine1 of the TIMP-3 sequence (protein) AACTCSPSHPQDAFCNSDIVIRAKVVGKKLVKEGPFGTLVYTIKQMKMYRGFTKMPHVQYIHTEASESLCGLKLEVNKYQYLLTGRVYDGKMYTGLCNFVERWDQLTLSQRKGLNYRYHLGCN |
| 3.59 ± 0.16 | 13.7 ± 0.2 | 8.2 ± 2 |  | 1.6 | 1.8 ± 0.4 |  |  |  |  | effectively inhibited | 26 ± 3 | N-TIMP-3: N-terminal inhibitory domain of TIMP-3 (residues 1 to 121), C-terminally His-tagged, wild-type (protein) CTCSPSHPQDAFCNSDIVIRAKVVGKKLVKEGPFGTLVYTIKQMKMYRGFTKMPHVQYIHTEASESLCGLKLEVNKYQYLLTGRVYDGKMYTGLCNFVERWDQLTLSQRKGLNYRYHLGCN |
